Source: paper PMC4017264 (Molecular Cell, 2014)

B1: HOIP extended PUB domain (aa 1–184) [not stated] / FITC-Ahx-labeled OTULIN PIM peptide (aa 49–67) [modified: FITC-Ahx label; FITC-Ahx label] [not stated] (parent complex)
chain 1: MPGEEEERAFLVAREELASALRRDSGQAFSLEQLRPLLASSLPLAARYLQLDAARLVRCNAHGEPRNYLNTLSTALNILEKYGRNLLSPQRPRYWRGVKFNNPVFRSTVDAVQGGRDVLRLYGYTEEQPDGLSFPEGQEEPDEHQVATVTLEVLLLRTELSLLLQNTHPRQQALEQLLEDKVED
chain 2: AEHEEDMYRAADEIEKEKE

Variants of: B1
Assay: fluorescence polarisation; triplicate

Kd | Variant
2.03 µM | chain 1 V104A

Variants of: B1
Assay: fluorescence polarisation; triplicate
Remark: another data set of the same source

Kd | Variant
64.5 µM | chain 2 Y8F
21.3 µM | chain 2 Y8W
11.2 µM | chain 2 D6A
